PMC4741959, “Methionine adenosyltransferase α2 sumoylation positively regulate Bcl-2 expression in human colon and liver cancer cells”

Target: recombinant MATα2 (UniProt P31153 1-395)
Assay: EMSA; 200 ng protein; LightShift Chemiluminescent EMSA Kit protocol (Thermo); buffer, salt, pH and binding temperature not stated
Conditions: label: biotin (extract EMSA), SYBR Green gel stain with recombinant protein, blunt

Sequence of recombinant MATα2 (P31153 whole entry): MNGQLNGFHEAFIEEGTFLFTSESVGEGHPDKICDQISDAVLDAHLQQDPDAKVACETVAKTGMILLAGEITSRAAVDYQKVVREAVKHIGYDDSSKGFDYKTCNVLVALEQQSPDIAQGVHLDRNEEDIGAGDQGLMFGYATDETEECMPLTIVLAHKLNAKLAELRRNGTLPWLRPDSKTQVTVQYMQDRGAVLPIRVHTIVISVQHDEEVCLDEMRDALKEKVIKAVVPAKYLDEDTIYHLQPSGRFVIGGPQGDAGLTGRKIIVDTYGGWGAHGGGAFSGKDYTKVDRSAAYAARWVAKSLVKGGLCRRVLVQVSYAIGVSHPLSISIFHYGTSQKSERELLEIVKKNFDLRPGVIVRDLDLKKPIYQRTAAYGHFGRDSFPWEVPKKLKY

B1: Bcl-2 P2 promoter probe 1 (site 1) (dsDNA)
DNA 1: TGCGGATTGACATTTCTGTGAA
DNA 2: TTCACAGAAATGTCAATCCGCA
- binding result: binds

B2: Bcl-2 P2 promoter probe 2 (site 2) (dsDNA)
DNA 1: GGTTTAATGTAACTTTCAATGG
DNA 2: CCATTGAAAGTTACATTAAACC
- binding result: binds

B3: Bcl-2 P2 promoter probe 3 (site 3) (dsDNA)
DNA 1: GGCAGCTTAATACATTCTTTTTAGCCG
DNA 2: CGGCTAAAAAGAATGTATTAAGCTGCC
- binding result: binds
